Reference: US20230416345A1 (NAVIGO PROTEINS, published 2023)

Tests used:
[1] = target: T1, human collagen type V (human, UniProt P20908 559-1570; P05997 216-1229); assay: ELISA, h Col V coated on the plate, A 450-600 nm
T1 construct: Bought; also called h Col V; type V collagen
Protocol: (§1) High binding plates (Greiner, 781061) were immobilized with 2.5 μg/ml recombinant human collagen type II (h Col II, Chondrex, CHX-20051), rabbit collagen type II (rbCol II, prepared from rabbit eyes), porcine collagen type II (p Col II, prepared from porcine eyes), human collagen type I, (h Col I, Sigma, C5483-1MG), human collagen type V (h Col V, Abcam, ab7537), human collagen type III (h Col Ill, Abcam, ab7535) and 67B89 (domain of fibronectin, produced in E. coli) respectively over night at 4° C. ELISA-plates were washed 3 times with PBST (PBS+ 0.1% Tween) and blocked with 3% BSA/0.5% Tween/PBS 2 h at RT. […] Plates were washed with PBST and incubated with biotinylated anti-StrepTag-ab (Antikörper-online, ABIN1573895) with a dilution of 1:10.000 for 1 h at rt. The binding was visualized with a-rabbit-IgG-HRP (Sigma, A9169) with a dilution of 1:10.000 and as substrate TMB Plus von KEM EN TEC Diagnostic, Kat-Nr. 4395.
(§2) Results. ELISA analysis clearly confirms the specific binding to type II collagen. […] No unspecific binding to type I collagen, type III collagen, type V collagen or to a domain of fibronectin (67B89) was detected (FIG. 2).

[2] = target: T2, 67B89 (domain of fibronectin) (UniProt P02751 1089-1540, limits assumed); assay: ELISA, 67B89 coated on the plate, A 450-600 nm
T2 construct: domain: EDB (67B89); Unrelated control protein; also called fibronectin domain EDB (67B89); extradomain B of fibronectin
T2 sequence (P02751 1089-1540 limits assumed): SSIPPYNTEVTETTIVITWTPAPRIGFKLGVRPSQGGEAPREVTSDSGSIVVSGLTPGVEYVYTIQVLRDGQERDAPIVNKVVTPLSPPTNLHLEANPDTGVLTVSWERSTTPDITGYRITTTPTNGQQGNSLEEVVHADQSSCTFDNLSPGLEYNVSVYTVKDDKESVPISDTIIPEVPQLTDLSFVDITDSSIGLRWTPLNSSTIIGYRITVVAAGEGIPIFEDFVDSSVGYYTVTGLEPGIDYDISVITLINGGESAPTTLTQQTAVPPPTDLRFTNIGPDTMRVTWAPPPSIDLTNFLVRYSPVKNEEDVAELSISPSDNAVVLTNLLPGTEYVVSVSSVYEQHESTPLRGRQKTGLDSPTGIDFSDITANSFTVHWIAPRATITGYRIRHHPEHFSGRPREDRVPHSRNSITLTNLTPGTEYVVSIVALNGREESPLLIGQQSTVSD
Protocol: as §1, §2

[3] = target: T3, human collagen type III (human, UniProt P02461 154-1221); assay: ELISA, h Col III coated on the plate, A 450-600 nm
T3 construct: Bought; also called h Col III; type III collagen
T3 sequence (looked up): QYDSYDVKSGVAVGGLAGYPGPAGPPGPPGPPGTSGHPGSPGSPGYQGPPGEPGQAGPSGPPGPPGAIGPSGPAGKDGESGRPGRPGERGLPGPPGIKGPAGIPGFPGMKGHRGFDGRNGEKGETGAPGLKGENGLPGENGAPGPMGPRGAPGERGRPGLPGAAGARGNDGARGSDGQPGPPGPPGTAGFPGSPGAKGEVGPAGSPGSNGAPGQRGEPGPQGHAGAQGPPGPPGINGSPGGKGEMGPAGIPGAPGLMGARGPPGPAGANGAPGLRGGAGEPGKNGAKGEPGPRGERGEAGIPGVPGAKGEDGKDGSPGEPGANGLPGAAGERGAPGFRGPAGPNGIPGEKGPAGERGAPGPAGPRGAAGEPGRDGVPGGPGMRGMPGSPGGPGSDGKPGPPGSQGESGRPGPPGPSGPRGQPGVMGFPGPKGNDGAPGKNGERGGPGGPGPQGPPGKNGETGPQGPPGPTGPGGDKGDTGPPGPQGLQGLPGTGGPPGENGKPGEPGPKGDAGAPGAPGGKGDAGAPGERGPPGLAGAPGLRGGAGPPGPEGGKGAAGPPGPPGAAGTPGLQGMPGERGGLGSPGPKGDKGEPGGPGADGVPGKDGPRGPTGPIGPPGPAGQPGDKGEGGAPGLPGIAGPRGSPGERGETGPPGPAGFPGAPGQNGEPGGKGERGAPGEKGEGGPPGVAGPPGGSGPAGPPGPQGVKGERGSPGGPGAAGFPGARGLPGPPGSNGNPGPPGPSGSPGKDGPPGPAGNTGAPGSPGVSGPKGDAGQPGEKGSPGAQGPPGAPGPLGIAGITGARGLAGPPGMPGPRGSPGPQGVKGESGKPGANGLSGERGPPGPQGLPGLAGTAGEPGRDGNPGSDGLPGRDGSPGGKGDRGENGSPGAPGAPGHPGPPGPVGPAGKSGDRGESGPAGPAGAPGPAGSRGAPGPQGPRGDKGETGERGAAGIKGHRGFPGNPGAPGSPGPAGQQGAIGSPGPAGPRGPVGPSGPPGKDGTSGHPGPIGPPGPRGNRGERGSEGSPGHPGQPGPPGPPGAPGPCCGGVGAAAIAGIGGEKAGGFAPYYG
Protocol: as §1, §2

[4] = target: T4, porcine collagen type II (porcine); assay: ELISA, collagen coated on the plate, dilution series of the binder, detection via StrepTag, A 450-600 nm
T4 construct: Prepared in house from pig eyes; also called p Col II; porcine type II collagen
Protocol: as §1, §2

[5] = target: T5, rabbit collagen type II (rabbit); assay: as above
T5 construct: Prepared from rabbit eyes; also called rbCol II
Protocol: as §1, §2

[6] = target: T6, human collagen type I (human, UniProt P02452 162-1218; P08123 80-1119); assay: ELISA, h Col I coated on the plate, A 450-600 nm
T6 construct: Bought; also called h Col I; type I collagen
T6 sequence (P02452 162-1218, chain 1 of 2): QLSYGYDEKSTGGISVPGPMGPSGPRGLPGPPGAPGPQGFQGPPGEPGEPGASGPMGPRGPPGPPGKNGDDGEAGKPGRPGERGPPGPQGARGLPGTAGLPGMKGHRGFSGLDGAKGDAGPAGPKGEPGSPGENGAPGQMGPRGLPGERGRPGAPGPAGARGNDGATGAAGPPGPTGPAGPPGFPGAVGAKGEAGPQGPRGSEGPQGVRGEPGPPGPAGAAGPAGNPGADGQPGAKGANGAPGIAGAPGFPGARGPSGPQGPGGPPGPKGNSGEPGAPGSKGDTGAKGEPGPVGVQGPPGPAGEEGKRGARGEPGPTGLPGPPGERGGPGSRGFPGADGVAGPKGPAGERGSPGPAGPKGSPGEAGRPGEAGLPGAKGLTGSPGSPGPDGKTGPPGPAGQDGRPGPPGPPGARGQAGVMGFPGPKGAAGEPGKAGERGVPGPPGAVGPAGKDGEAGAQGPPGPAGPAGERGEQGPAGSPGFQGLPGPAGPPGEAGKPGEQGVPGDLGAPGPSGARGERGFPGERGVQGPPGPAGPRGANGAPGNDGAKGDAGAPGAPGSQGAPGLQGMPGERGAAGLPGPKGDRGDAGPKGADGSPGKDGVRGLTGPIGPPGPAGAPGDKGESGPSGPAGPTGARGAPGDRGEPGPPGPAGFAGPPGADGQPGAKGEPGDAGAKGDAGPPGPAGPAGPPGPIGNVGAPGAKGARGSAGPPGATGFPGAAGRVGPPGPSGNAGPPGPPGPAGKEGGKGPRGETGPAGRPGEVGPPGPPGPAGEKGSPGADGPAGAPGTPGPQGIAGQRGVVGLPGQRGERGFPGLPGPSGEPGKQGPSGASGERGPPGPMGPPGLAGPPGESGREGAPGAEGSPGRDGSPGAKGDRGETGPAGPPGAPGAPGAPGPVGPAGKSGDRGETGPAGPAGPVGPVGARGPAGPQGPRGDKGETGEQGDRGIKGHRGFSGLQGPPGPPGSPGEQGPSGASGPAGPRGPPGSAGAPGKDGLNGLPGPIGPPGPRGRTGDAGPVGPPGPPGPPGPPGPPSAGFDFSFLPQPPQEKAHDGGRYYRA
T6 sequence (P08123 80-1119, chain 2 of 2): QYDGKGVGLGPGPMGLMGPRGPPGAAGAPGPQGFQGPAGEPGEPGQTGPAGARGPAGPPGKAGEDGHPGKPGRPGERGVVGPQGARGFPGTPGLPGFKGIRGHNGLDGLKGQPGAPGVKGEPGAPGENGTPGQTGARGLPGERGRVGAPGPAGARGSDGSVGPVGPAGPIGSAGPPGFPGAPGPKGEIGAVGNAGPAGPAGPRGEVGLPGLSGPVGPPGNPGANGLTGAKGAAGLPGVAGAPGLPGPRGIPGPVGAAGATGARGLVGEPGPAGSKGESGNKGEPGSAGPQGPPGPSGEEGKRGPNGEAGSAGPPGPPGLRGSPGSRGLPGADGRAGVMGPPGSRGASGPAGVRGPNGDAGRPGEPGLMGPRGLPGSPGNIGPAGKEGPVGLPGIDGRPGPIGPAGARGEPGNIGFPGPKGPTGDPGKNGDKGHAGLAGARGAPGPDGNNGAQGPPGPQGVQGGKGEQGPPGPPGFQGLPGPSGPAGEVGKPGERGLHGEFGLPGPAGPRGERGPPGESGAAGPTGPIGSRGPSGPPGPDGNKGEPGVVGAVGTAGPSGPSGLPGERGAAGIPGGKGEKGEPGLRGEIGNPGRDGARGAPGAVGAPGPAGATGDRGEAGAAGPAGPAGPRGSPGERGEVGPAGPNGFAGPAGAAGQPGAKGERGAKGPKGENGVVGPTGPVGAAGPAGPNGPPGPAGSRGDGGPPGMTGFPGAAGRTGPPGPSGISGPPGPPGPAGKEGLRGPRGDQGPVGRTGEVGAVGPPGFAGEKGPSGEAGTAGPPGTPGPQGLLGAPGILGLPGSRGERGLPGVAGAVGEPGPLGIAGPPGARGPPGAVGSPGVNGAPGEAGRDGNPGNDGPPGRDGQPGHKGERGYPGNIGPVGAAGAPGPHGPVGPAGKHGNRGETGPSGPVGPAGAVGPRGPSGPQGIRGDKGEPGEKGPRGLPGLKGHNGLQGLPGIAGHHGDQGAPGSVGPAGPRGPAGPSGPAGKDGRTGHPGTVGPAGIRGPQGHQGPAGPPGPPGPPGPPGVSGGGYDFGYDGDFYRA
Protocol: as §1, §2

[7] = target: T1, human collagen type V; assay: SPR (Biacore 3000)
Protocol: (§3) The purified proteins were immobilized on a CM-5 sensor chip (GE Healthcare) using NHS/EDC after PDEA activation resulting in 110-140 RU with a Biacore 3000 system (GE Healthcare). The chip was equilibrated with SPR running buffer (PBS 0.05% Tween pH 7.3). Upon binding, target analyte was accumulated on the surface increasing the refractive index. This change in the refractive index was measured in real time and plotted as response or resonance units versus time. The analytes were applied to the chip in serial dilutions with a flow rate of 30 μl/min. The association was performed for 120 seconds and the dissociation for 120 seconds. After each run, the chip surface was regenerated with 30 μl regeneration buffer (10 mM glycine pH 2.0) and equilibrated with running buffer.
(§4) Binding studies were carried out by the use of the BIAcore 3000 (GE Healthcare); data evaluation was operated via the BIAevaluation 3.0 software, provided by the manufacturer, using the Langmuir 1:1 model (RI=0). Evaluated dissociation constants (KD) were standardized against the immobilized protein and indicated. Shown is the change in refractive index measured in real time and plotted as response or resonance unit [RU] versus time [sec].

[8] = target: T7, BSA (UniProt P02769 25-607); assay: SPR (Biacore 3000)
T7 construct: Control protein
Protocol: as §3, §4

[9] = target: T2, 67B89 (domain of fibronectin); assay: SPR (Biacore 3000)
Protocol: as §3, §4

[10] = target: T1, human collagen type V; assay: SPR (Biacore), response at steady state; concentration not shown
Protocol: as §3, §4

[11] = target: T6, human collagen type I; assay: as above
Protocol: as §3, §4

[12] = target: T7, BSA; assay: as above
Protocol: as §3, §4

[13] = target: T2, 67B89 (domain of fibronectin); assay: as above
Protocol: as §3, §4

[14] = target: T3, human collagen type III; assay: as above
Protocol: as §3, §4

[15] = target: T4, porcine collagen type II; assay: ELISA (KD determination by ELISA, Example 5)

T1 sequence (P20908 559-1570, chain 1 of 2): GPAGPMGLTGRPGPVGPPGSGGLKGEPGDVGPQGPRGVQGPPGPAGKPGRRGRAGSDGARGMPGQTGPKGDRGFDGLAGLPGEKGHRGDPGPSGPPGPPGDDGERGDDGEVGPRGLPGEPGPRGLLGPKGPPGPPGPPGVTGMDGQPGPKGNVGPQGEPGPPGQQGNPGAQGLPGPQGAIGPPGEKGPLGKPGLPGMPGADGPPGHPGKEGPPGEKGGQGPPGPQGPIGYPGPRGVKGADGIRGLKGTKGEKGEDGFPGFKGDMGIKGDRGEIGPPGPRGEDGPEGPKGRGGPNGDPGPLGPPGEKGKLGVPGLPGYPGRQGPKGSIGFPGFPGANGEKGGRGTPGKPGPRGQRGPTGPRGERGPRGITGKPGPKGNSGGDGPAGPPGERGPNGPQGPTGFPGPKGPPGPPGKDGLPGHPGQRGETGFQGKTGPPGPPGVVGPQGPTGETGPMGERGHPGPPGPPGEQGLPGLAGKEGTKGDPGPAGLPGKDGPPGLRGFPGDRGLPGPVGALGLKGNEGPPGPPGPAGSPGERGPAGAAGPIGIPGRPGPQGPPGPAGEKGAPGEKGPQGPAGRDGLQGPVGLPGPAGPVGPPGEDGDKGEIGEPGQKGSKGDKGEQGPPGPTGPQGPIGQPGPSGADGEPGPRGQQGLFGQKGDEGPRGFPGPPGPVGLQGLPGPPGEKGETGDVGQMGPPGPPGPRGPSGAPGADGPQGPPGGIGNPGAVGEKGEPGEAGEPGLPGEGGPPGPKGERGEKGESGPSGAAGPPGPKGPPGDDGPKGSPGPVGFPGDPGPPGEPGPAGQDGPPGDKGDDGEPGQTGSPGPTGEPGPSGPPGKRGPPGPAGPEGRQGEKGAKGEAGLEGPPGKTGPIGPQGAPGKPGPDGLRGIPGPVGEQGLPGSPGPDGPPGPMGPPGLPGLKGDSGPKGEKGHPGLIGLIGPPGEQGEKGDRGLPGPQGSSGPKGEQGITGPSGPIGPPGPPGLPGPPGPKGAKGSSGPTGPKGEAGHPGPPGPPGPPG
T1 sequence (P05997 216-1229, chain 2 of 2): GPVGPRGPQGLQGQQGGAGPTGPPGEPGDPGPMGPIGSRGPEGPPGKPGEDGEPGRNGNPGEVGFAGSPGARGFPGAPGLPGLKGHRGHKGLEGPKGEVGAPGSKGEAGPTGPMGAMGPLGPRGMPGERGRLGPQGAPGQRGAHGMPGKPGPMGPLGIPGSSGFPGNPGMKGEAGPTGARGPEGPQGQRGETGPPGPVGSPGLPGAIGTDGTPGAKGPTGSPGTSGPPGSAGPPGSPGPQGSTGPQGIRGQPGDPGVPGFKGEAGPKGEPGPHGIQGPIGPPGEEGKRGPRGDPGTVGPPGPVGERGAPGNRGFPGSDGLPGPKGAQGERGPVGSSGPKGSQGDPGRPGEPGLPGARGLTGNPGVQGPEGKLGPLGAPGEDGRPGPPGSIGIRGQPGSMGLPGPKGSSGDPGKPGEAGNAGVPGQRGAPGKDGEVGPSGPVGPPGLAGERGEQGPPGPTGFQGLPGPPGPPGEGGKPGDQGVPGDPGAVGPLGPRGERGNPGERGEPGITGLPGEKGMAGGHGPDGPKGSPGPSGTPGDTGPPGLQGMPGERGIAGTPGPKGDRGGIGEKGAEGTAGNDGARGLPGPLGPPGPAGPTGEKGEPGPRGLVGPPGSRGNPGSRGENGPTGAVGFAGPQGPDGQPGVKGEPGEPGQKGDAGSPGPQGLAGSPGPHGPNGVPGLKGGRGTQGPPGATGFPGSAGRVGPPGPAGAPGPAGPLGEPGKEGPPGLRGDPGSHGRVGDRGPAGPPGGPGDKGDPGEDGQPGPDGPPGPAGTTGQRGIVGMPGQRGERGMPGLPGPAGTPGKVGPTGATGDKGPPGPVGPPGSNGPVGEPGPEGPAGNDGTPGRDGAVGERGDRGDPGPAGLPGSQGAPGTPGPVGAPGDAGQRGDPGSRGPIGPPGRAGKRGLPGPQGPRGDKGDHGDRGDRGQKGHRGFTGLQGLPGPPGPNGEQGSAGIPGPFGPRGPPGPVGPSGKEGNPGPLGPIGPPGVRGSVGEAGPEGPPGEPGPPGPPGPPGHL

B1: CID 212000 (SEQ ID NO: 39), dimer of SEQ ID NO: 2 with linker between the monomers (designed binder)
chain: IAAKFDEAQSAADSEILHLPNLTEQQRHYFRRWLSDDPSVSTHILTQAQHLNDDQAPKGGGGSGGGGSGGGGSGGGGSIAAKFDEAQSAADSEILHLPNLTEQQRHYFRRWLSDDPSVSTHILTQAQHLNDDQAPKSAWSHPQFEK
notes: not shown: C-terminal Strep-tag (detected with anti-StrepTag antibody)
binding result [1]: no binding (tested: about 1100 nM) | binding result [2]: no binding (tested: about 1100 nM) | binding result [3]: no binding (tested: about 1100 nM) | Kd [4]: 9.11 nM | Kd [5]: 12 nM | binding result [6]: no binding (tested: about 1100 nM)

B2: CID 211999 (SEQ ID NO: 38), dimer of SEQ ID NO: 2 (directly joint monomers) (designed binder)
chain: IAAKFDEAQSAADSEILHLPNLTEQQRHYFRRWLSDDPSVSTHILTQAQHLNDDQAPKIAAKFDEAQSAADSEILHLPNLTEQQRHYFRRWLSDDPSVSTHILTQAQHLNDDQAPKSAWSHPQFEK
notes: as for B1
binding result [1]: no binding (tested: about 1100 nM) | binding result [2]: no binding (tested: about 1100 nM) | binding result [3]: no binding (tested: about 1100 nM) | Kd [4]: 14.3 nM | Kd [5]: 21.1 nM | binding result [6]: no binding (tested: about 1100 nM)

B3: CID 212001 (SEQ ID NO: 41), tetramer of SEQ ID NO: 2 (designed binder)
chain: IAAKFDEAQSAADSEILHLPNLTEQQRHYFRRWLSDDPSVSTHILTQAQHLNDDQAPKIAAKFDEAQSAADSEILHLPNLTEQQRHYFRRWLSDDPSVSTHILTQAQHLNDDQAPKIAAKFDEAQSAADSEILHLPNLTEQQRHYFRRWLSDDPSVSTHILTQAQHLNDDQAPKIAAKFDEAQSAADSEILHLPNLTEQQRHYFRRWLSDDPSVSTHILTQAQHLNDDQAPKSAWSHPQFEK
notes: as for B1
binding result [1]: no binding (tested: 100 nM) | binding result [2]: no binding (tested: 100 nM) | binding result [3]: no binding (tested: 100 nM) | Kd [4]: 0.27 nM | Kd [5]: 0.21 nM | binding result [6]: no binding (tested: 100 nM)

B4: 211190 (SEQ ID NO: 1) (designed binder)
chain: NAASHDEAQLSALVEIWDLPNLTTRQKQKFIYSLQRDPSVSKEVLGEAQKLNDSQAPK
notes: also called CID211190; not shown: C-terminal Strep-tag from the expression vector
binding result [7]: no binding | binding result [8]: no binding | binding result [9]: no binding

B5: 211519 (SEQ ID NO: 37), homodimer of SEQ ID NO: 11 (designed binder)
chain: IAAKFDEAQQAAFYEILHLPNLTEQQRNYFIQWLRDDPSVSPTVLGTAQQLNDSQAPKIAAKFDEAQQAAFYEILHLPNLTEQQRNYFIQWLRDDPSVSPTVLGTAQQLNDSQAPK
notes: also called CID 211519; not shown: C-terminal Strep-tag from the expression vector
binding result [10]: no binding | binding result [11]: no binding | binding result [12]: no binding | binding result [13]: no binding | binding result [14]: no binding | Kd [15]: 700 nM
